Measured values as given in the NTF2 design screens of Basanta et al. (2020).

Assay: protease stability score; higher = more stable; yeast display proteolysis, trypsin and chymotrypsin;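 further: relative to predicted unfolded state with 0 unfolded-like and 1 meaning tenfold more protease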

Sequence: SEREHLADRFVKELTTALQTGDEEKIREMFDPHMKLIINGVTFHGWEELEKIRKRVDHIEHVEVRIEDVRIINGVVEIKGELHVHERVGDKIIDRSNDQTYFVEKVNGRWILKQVELH
- protease stability score: 1.14

Sequence: SEREKESERLWRLSAEVMETGDESMSLKEFDPHYRVLFDGQDFHGREQWKEFLERFDHEALKRFHEKRDDRQGDKAIHEGDLDLVLNYGDKQLRTRRDVIFYITKVNGKWMIKIVEFV
- protease stability score: 0.084

Sequence: SEREKHSKELNEHMIQLFETGDEDLLIRMADPHVRVIQGDKEYHGRHWYEKIFHDFVKQAQNARFEIHDVKIQGEKLIIHGKMEWNGKRHEVEWYFDIVDGRIKEEEIRIR
- protease stability score: 0.943

Sequence: SEREKHWRDWVENVVEYHTHLLETGDEEEWKRFFRRLADPHVRMIVGDKVTHGREDAMRLFDELIKLLGVNHVHFRRVEIIGNKVNIDVELRQGNKFINLELILIVIDGKLENVERRVH
- protease stability score: 1.14

Sequence: SEREKIAELAYRLLKRSSDTGDPHLMQWLMDPNTRIEQGEFEHHGRDAISFWIKRFDHNRHIDVKRIEVQGNKVIMEFDVELDVNGVEIHTELVLISLKVNGQWRMESIKIE
- protease stability score: 0.575

Sequence: SEREQTVRHWVELLIHLLITGDEETLVHLLDPHARADIDGVEMHGRKTTEFWLKLFPHIKIELRRVEIQGEKVHMDTTMIQGEKERSTRIHLDVINGRIKRHSYEIE
- protease stability score: 0.262

Sequence: SERHDHAEHVLRLWEHFWKTGDETNLSRLLDPSVRWVIGDKVYHGMETVSHNLSRHYLRADHVEESVHRLNFQGNKVEMDGRIILNVNGVQIDKRSHIELISFNGKIKELDLHIT
- protease stability score: 0.371

Sequence: SERHEESHERTRLLMHAHETGDFHTLQRLMDPDTRLLIIFNGREIHIHGMESAFKFFNEIRISHVTIHRVDIQGDKVNVDGEQEGQINGQRSRNRIHWDIDVIDGKIKRIIVEIR
- protease stability score: 0.993

Sequence: SERHEILRLITEIWDHLKHTGDEDSLADLFDPHARMIWNGRDIHGWSNLIEAFRKILEFLGIDRIHIENTEMRLQGDKSHNRTDLNVNGKHLDTRVHLDVVDGRIRVTEVRIH
- protease stability score: 1.06

Sequence: SERHEKTKKVLDDFLEIRETGDEHTFNRLADPHTRVHIGDKYVHGMEDANKMLKQWEQEMGIDHIIIRHVEIRLFNGKVNHHLDEELIVNGQSLRVEVVLFIFKFDGRWVLEKLHINVH
- protease stability score: 1.21

Sequence: SERHELVVRIVRLWIRMIRTGNEELYMRLADPHVKLDVNGREMHGRERSTEMWSELRIRHLHTEHIEVAENRFVVHGRLVTEFNGKEHDVKVVIHVEIVDGRIKEEEYHIL
- protease stability score: 1.29

Sequence: SERHKDMKRLIDEWRKSYETGDEDQLRRLLDPTTRVDFNGVEYHGRHEAVEIMSQIRVEHIDIRELHVQGNKAEVRVRMHGHFDGQEEEVEFIIYMKKVNGRWVVHQEEHR
- protease stability score: 1.16

Sequence: SERKQASEDAFRIYIETFKTGDERTMRENMDPDVRVHIGEFNHHGMEESAHLLHEYWKRFGFRIRHVHIEDVKNVGNKVILHTLSEIEINGREEHVDTELIILKIDGKWLVEEVRVK
- protease stability score: 0.92

Sequence: SERREFSNFTMQMTITVTLTGDFHTSHRFVDPHARWEQGDKEYHGREIFAKTLLDKSSELGVDHYDIKTIHIQGEKVTVHLRVEVNGVEFELILRAHKINGVWLMESVEVRER
- protease stability score: 0.971

Sequence: SERRERLEVLSEILLRAWETGDEQELVENADPHTKLEVHQGDKEKHFHGWELILKHIYQIKNVKIHIEHVHIQGDKIENHVKLNINGKRIEVEITVWVVDGVIKHMEVRIK
- protease stability score: 1.93

Sequence: SERSEFITRLTREMIHAFETGDWKWLSELLDPNTRYHFRQGDKEFDMHGREEMVKMLEKILRHFGIDHFHIEDVKLYGDKVIVHHRSLVNGKEVHVRIEWDIVDGRIKSFNLDYHEN
- protease stability score: 1.26

Sequence: SESDEMAVEMLLRWVENLITGDEHTSQELLDPHVRIIFYIGDKEVHYHGWENAVEFWEEVVRRYDYFHIKFEEITVQGEKVRSKTRLTVIINGQEERYDTKLNAIVVNGRFKSVTIQYD
- protease stability score: 0.876

Sequence: SESEDLLETLERVIRRVDETGDERDFHEMLDPDARIIIGDKIHIGREASELWFKRVDHIHHRHIHQIRVIGNKMHIDIEVDGKIGDWRFRTRVELVLVKVNGKWMVHHININ
- protease stability score: 1.17

Sequence: SESEDQAHKFSEEWIKAFETGDEEHMNRLVDPNVRIEVGDKEHHGRHVYLEILKRLGANHVRIHIEDIEVQGEKLIIHGKIIITVGDKVIEIRTIIIVTKIDGRWRIKDIIFH
- protease stability score: 1.39

Sequence: SESEEASEWVIKIWRDTMETGDEKTLNHLLDPSVRLVVNGQEIHGRESMIKEFRRFKNVKLHDIKHHDIDMIGDKIIIHGTIHGEINGREVTVEQEIISIKVNGKWLTRSLILH
- protease stability score: 1.64

Sequence: SESEEASREAIHLMIESWRTGNEHILDRLMDPNVRNRIDGRDLIGRENFLEVLRHLEEKMGIDHIEFDTERVRWVGDKAESDTRFETVYNGKNVEISTKVHWEKVNGRWHIREIRFH
- protease stability score: 1.17

Sequence: SESEEDAHKASREITHMLYTGNEELWSTLADPNTRIVINGVEVHGREQVVRVIRELLRRFGVDKVHSELRTVDVQGEKVEIHSHYVQGDKSYDIILVMNKIDGRWHLQRQSIR
- protease stability score: 1.18

Sequence: SESEEDFRWFMHVLLKTFLTGDEDEFDSLIDPNVRLIVNGKDTHGWEVAVKFVRRFDHLDLYVRESEIQGDKVESDTELIVNFNGVSIKHKTRVIAEKVNGRWILREMRIG
- protease stability score: 1.44

Sequence: SESEEEARKVIERLFRAERTGDEDDVKHLLDPNVKIDWNGRKYHGRDDWAHYISHLGIDHSELIIKHLEYQGDKLRLHGILRYVIGDKTIEEEVFEHMQKINGRWRIREIHIK
- protease stability score: 1.64

Sequence: SESEEEARRKSEVFLRHLRTGDFREFIKLADPHVLNIFPGVNHVGREHWRRLELHLRRREFRVHDERLDIQGDKVRINIDLETDVEFDGKELKFRTLILIEAEKVDGRWRVTEVSEEPR
- protease stability score: 0.524

Sequence: SESEEFAREFLEHMEKFLRTGNWEEMKRNADPNVLLRIGDKHLHGREEYEEWLRKFLEHMRIREVEVKDLKIVGDKIFLIIRIRIHFDGREDQLDTILVMQKVDGRWIVTEIRVR
- protease stability score: 1.21

Sequence: SESEEFLEKAYRLIEESLRTGDFREMLSNIDPNARFRYGNFDFHGRENLEFMLKELSKRIDHFHNSHIRRVNVINGRMHLHTSMHVEYDGKKEEVETEWVLLKVDGQWLIKEVTVI
- protease stability score: 2.51

Sequence: SESEEHSKKLFDTWVHSELTGDERSLLHLMDPHVKFIIDGREIHGREKASEFLVKLREHLGAEIHDYRVRDMKIQGEKVIIHSELDVQVDGVRHHERLVLIMHKIDGQWSVESVKRV
- protease stability score: 1.08

Sequence: SESEEIAHNFTELLIKTLNTGDEKLYRELADPNARIEINGVELVGWKKANELLQRIDHERVRRVKLKDIEVQGDKVIVRTHEEREINIGDKRLHIRTDVEIIWVKINGKWILHEISVH
- protease stability score: 1.23

Sequence: SESEELAEHWFELLIRSILTGDEDTLRRLMDPDVKIQVGDKEWHGREEYIRMVLEFSHLYKNVKLHFRIRSVVDIDGRLTVDTEIINSFDGREYRIDTRLHVDKYDGVWVAKHLIYS
- protease stability score: 1.39

Sequence: SESEHKAREMIRLIEHFLITGDEESWHRLFDPHTRVVIDGREIHGMEIYNHWLKELRIRDSHIHIRTIEDINGRINIHGELQLHGIINGQTHDFRSHIDLHVLKFNGRWHMETYIIS
- protease stability score: 1.57

Sequence: SESEHLLHTAHELVLRLQETGDWDEIIELADPNVRMEIGDKEIHGREEFERWSREMRFEHVEIHDMRVQGNKADLDGRMRGHFNGRTIDTRVKIIFHKVDGRWLITSYHVK
- protease stability score: 1.18

Sequence: SESEKASEIATKELEEVEKTGDEKTIEDYMDPNTRLHINGVDLHGMENFLEFWHRLLRKLGFESTSFHLKSSRIQGNKIKMHSIIHVKQGEKDISFDVEYIALKFNGRWIEESMSSK
- protease stability score: 1.32

Sequence: SESERATRHALRLLWDILLTGDEETWEKMADPNVRVEIGNFHDHGMDSMRLLFHLLLERIDHIHDFTVRHSHSQGDKVENHTEIEVRQGDKSLNITTVFVYVKINGRWINKRVIFK
- protease stability score: 0.999

Sequence: SESERYIHEAERHLIEKLRTGDWDDMSRLLDPHVRLDVNGQEFHGWHRVSDTMRRFGFKHVDVEDTHINEDELRSHLRSRVDGVHFELHIQMRKVNGRWFFKNLEFK
- protease stability score: 1.15

Sequence: SESHDLLEEFVRLILHLWRTGDEEILHNMADPNTQMHIGDKTYHGREEAVDVIHKLLKHLRFKHLHIDHIDIQGDWVRITGHLHVKVDGREIQREVSSVVIKINGRWILRSERID
- protease stability score: 2.27
